In the supplement of paper PMC9170038:

System: MS2 coat protein
Assay: apparent KD of MS2 coat protein; designed switch direction (-1 OFF switch, 1 ON switch): -1; higher = weaker reporter binding
Procedure, shortened: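 The buffer was Tris-HCl pH 7.5 with KCl, MgCl2, BSA, DTT, tRNA and Tween-20. In it, SNAP-549-labelled MS2 coat protein was titrated in doubling steps from 0.7 or 1.5 nM to 3 µM over chip-bound RNA switches transcribed by stalled E. coli RNA polymerase on Illumina chips. Apparent KD is the per-design median over clusters of curve fits to normalised fluorescence.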

[1] = input ligand: microRNA oligo, concentration not stated
[2] = Eterna round: R95, input ligand: microRNA oligo, concentration not stated
[3] = Eterna round: R95, input ligand: FMN 200 uM

Row | Sequence | apparent KD of MS2 coat protein (input ligand: FMN 200 uM) | apparent KD of MS2 coat protein (input ligand: none) | apparent KD of MS2 coat protein [2] | other results
1 | CCCGCAGGUUUUUUGCUCGACAUGAGGAUCACCCAUGUUGCGUGGGUUGUGUGUGUGCGGUGUAUAUAUAUGGUCCU [-24.5, -48 kcal, A 14%] (Eterna round: R97, puzzle: Sensor, turn-off variant 1) | 305 nM | 371 nM | – | –
2 | CCCGCGGGCGCAGGAUAUACAUGAGGAUCACCCAUGUGCCGCGCAAGCGGCAGAGCGGACAACGGGUAGAAGGGCGCCCGCGGG [first try] (Eterna round: R96, puzzle: Exclusion NG 2) | 875 nM | 492 nM | – | apparent KD of MS2 coat protein [1]: 202 nM
3 | CCCGUGUGAGGAUAUCGUUCACUUGGCGAAAGUCGAGUGGACGAGAAGGUACAUGAGGAUCACCCAUGUGCGGG [-36.1, -35.4 kcal, A 24%] (Eterna round: R97, puzzle: Exclusion 4) | 155 nM | 134 nM | – | –
4 | CCCGUGUUAGGAUAUACGGCACACCUGCCAGCAGGUGUAUAGUAGAAGGAACAUGAGGAUCACCCAUGUAUAGC [Rizausma] (puzzle: Exclusion 4) | – | – | 34.6 nM | –
5 | CCCUCAAGCGAGGAUAUAAAUGCGCAUUCGCGGUUAGAAGGCGCUACAUGAGGAUCACCCAUGUAAUUAAAUGG [jl-ex6-4.51 ViennaUCT mod] (Eterna round: R97, puzzle: Exclusion 6) | 128 nM | 52.6 nM | – | –
6 | CCCUCACAUGAGGAUCACCCAUGUCAGGAUAUCUCAGUACGUCCACACGGACGCACCAAGAGAAGGGACAAAGC [Veara] (Eterna round: R97, puzzle: Exclusion 1) | 32.2 nM | 20 nM | – | –
7 | CCCUCACAUGAGGAUCACCCAUGUCAGGAUAUGCGCGGCCAAAAGGGCUGCUAAGGCAGCAGAAGGGACGUGAA [Eninored] (puzzle: Exclusion 1) | – | – | 14.4 nM | –
8 | CCCUCACAUGAGGAUCACCCAUGUCAGGAUAUUCGAGGCGCAAAUGCGCCAAAUGCAGGAAGAAGGGACGUGCC [Isqubemaor] (puzzle: Exclusion 1) | – | – | 14 nM | –
9 | CCGAAUAAGCAGGAUAUCGUAUCGGAAACGAUACGAGAAGGGUUAACAUGAGGAUCACCCAUGUUCCUUAACGG [Fiskers Ex 6 - 17] (puzzle: Exclusion 6) | – | – | 17.4 nM | –
10 | CCGACCCGAGGAUAUUGUACUGCUGACAUGAGGAUCACCCAUGUAUGUUAACUCGGCCGACGAGAAGGCGGCGACA [BotMod 3 - Jieux - Exclusion 5] (Eterna round: R97, puzzle: Exclusion 5) | 18.4 nM | 22.1 nM | – | –
11 | CCGAGGAAGCGGUCCUAUGACAUGAGGAUCACCCAUGUACCUCGCUACGAGCUUUUUGCUCGUCUUAUAAUUCUCGG [Mat - Sensor v3 - turn-off var 1 - JL Mod - D28] (puzzle: Sensor v3, turn-off variant 1) | – | – | 65.5 nM | apparent KD of MS2 coat protein [3]: 24.2 nM
12 | CCGAUAAUGUAGGAUAUCGUAUCGGAGACGAUACGAGAAGGACAAACAUGAGGAUCACCCAUGUUCCUUAACGG [Mat - Exclusion 6 - Eli Mod - D74] (puzzle: Exclusion 6) | – | – | 13.5 nM | –
13 | CCGCGACAUGAGGAUCACCCAUGUUAGGAUAUGUGCGCCAACCAAGGAAUUGGUAGGUACAGAAGGAGCUGGGU [Eternabot (L2) Solution 97] (Eterna round: R97, puzzle: Exclusion 1) | 149 nM | 56.3 nM | – | –
14 | CCGCGUACAGGAUAUCCAUCUGGAUCAGACAAGAUCCUGAUGGAGAAGGGACAUGAGGAUCACCCAUGUUGCGG [Mat - Exclusion 4 - Eli Mod - D54] (Eterna round: R97, puzzle: Exclusion 4) | 19 nM | 19.3 nM | – | –
15 | CCGCUACAUGAGGAUCACCCAUGUCAGGAUAUCGUACGUUCGUCGAAAGACGAUCGUACGAGAAGGGUGUGCGG [Eli x1 4.37] (Eterna round: R97, puzzle: Exclusion 1) | 169 nM | 155 nM | – | –
16 | CCGCUCCGUGUAGGAUAUCGGCGUGCCCUGCGCCGAGAAGGACAUGAGGAUCACCCAUGUAUGUUAUUAUCACGCGUGGCGCAC [Design 75] (Eterna round: R96, puzzle: Exclusion NG 1) | 18.7 nM | 19.9 nM | – | apparent KD of MS2 coat protein [1]: 15 nM
17 | CCGCUGUCAGGAUAUCGUGCAUACAACGAAAGUUCUAUGUGCGAGAAGGGACAUGAGGAUCACCCAUGUUUGCG [Omei Ex4 A20] (Eterna round: R97, puzzle: Exclusion 4) | 41.3 nM | 28.2 nM | – | –

Row | Sequence | apparent KD of MS2 coat protein (input ligand: FMN 200 uM) | apparent KD of MS2 coat protein (input ligand: none) | apparent KD of MS2 coat protein [2] | other results
18 | CCGGAAAGGAAGGAUAUGCUAGACGAGAGUCUAGCAGAAGGUCCUACAUGAGGAUCACCCAUGUGGUCCUCCGG [Mat - Exclusion 6 - Eli Mod - D34] (Eterna round: R97, puzzle: Exclusion 6) | 252 nM | 1270 nM | – | –
19 | CCGGAAAUGGAGGAUAUAGGAGUCGAUAGACACCUAGAAGGUCAUACAUGAGGAUCACCCAUGUGUCCUACCGG [Fiskers Ex 6 - 79] (puzzle: Exclusion 6) | – | – | 12.9 nM | –
20 | CCGGAACAUGAGGAUCACCCAUGUCAGGAUAUCCCUAAAUCGUCGAUAGACGAUAAAAGGAGAAGGGACACCGG [Mat - Exclusion 1 - Eli Mod - D26] (Eterna round: R97, puzzle: Exclusion 1) | 19.3 nM | 16.3 nM | – | –
21 | CCGGCUUAGGAGGAUAUAGGAGUCGAUAGACACCUAGAAGGCCUAACAUGAGGAUCACCCAUGUGUCCUACCGG [Fiskers Ex 6 - 99] (puzzle: Exclusion 6) | – | – | 16.3 nM | –
22 | CCGGUAAAGGAGGAUAUAGGAGUCGAUAGACACCUAGAAGGCCUGACAUGAGGAUCACCCAUGUGUCCUUCCGG [Fiskers Ex 6 - 94] (puzzle: Exclusion 6) | – | – | 16.8 nM | –
23 | CCGUUCCGUGUAGGAUAUUGGCCUUCCUCGGGCCGAGAAGGACAUGAGGAUCACCCAUGUAUGCUAUUAUCGCGCGUGGCGCCC [Design 98] (Eterna round: R96, puzzle: Exclusion NG 1) | 129 nM | 39.8 nM | – | apparent KD of MS2 coat protein [1]: 32.4 nM
24 | CCUAGGUUAGGAUAUCUCGAUGUGGCAAAGGGUCCAUAUCGGGAGAAGGAACAUGAGGAUCACCCAUGUGGAGC [Eternabot (Original) Solution 42] (Eterna round: R97, puzzle: Exclusion 4) | 159 nM | 57 nM | – | –
25 | CCUCAACAGUAGGAUAUCAUAUAACUAUUGUGAUGAGAAGGACUGACAUGAGGAUCACCCAUGUUAACGUGAUA [Exclusion 6 - 5:b] (puzzle: Exclusion 6) | – | – | 17.3 nM | –
26 | CCUCAACAGUAGGAUAUCAUCAAACUAUUGUGAUGAGAAGGACUGACAUGAGGAUCACCCAUGUUAACGUGAUA [Exclusion 6 - 6:a] (puzzle: Exclusion 6) | – | – | 38.4 nM | apparent KD of MS2 coat protein [3]: 38.9 nM; apparent KD of MS2 coat protein (Eterna round: R95, input ligand: none): 44.9 nM
27 | CCUCAACAUGAGGAUCACCCAUGUAAGGAUAUGUUGCAGAGCCUCGAGGUACCCGUCAACAGAAGGUAUAUAGA [Eternabot (L1) Solution 16] (Eterna round: R97, puzzle: Exclusion 1) | 45.1 nM | 30.7 nM | – | –
28 | CCUCACCGAGGAUAUACAUGAGGAUCACCCAUGUGAUCCUAAGGCUGAUCAAGCCUAUGUAGAAGGCGCAAAUC [salish99_ex3_r4_005] (Eterna round: R97, puzzle: Exclusion 3) | 1010 nM | 765 nM | – | –
29 | CCUCAGUAAGGAUAUCAGCUUAGGAGGUUGGUAAUGAGAGCUGAGAAGGUACAUGAGGAUCACCCAUGUUAGUU [JL Zatite mod 7] (puzzle: Exclusion 4) | – | – | 30.2 nM | –
30 | CCUCAGUCACAGGAUAUGCUCAUCUAAUGAUGAGCAGAAGGGUGAACAUGAGGAUCACCCAUGUUUACGGUGGU [Omei Ex6 E8] (Eterna round: R97, puzzle: Exclusion 6) | 122 nM | 328 nM | – | –
31 | CCUCCACAGUAGGAUAUCAUCAAACUAUUGUGAUGAGAAGGACUGACAUGAGGAUCACCCAUGUUAACGUGAUG [Mod of Brourd 7 - Jieux - Exclusion 6] (Eterna round: R97, puzzle: Exclusion 6) | 25.3 nM | 22.9 nM | – | –
32 | CCUCCACAUGAGGAUCACCCAUGUCAGGAUAUCGUGUGUUUUUUUUCGGUCUUUCGUGCGAGAAGGGACGUCUG (puzzle: Exclusion 1) | – | – | 28.1 nM | –
33 | CCUCGAAGGCAAGGAUAUCCUACAUUGUUCUGGCCCGGGCAUGCUACAUGAGGAUCACCCAUGUGGGAGAAGGUGCGCCACGGC [Design 30] (Eterna round: R96, puzzle: Exclusion NG 2) | 56.7 nM | 58.3 nM | – | apparent KD of MS2 coat protein [1]: 45 nM
34 | CCUCGACAUGAGGAUCACCCAUGUGAGGAUAUCAUAUUCAGACGAAAGGUGUUAGAGUUGAGAAGGCGCAUGUU [Eternabot (L1) Solution 51] (Eterna round: R97, puzzle: Exclusion 1) | 44.1 nM | 28.3 nM | – | –
